Data published in patent US20150010920.

Biological target: EGFP-T/C1 (EGFP-E-III-F-172)

B1: protease type X (Sigma, St. Louis) (protein)
chain: ITGTSTVGVGRGVLGDQKNINTTYSTYYYLQDNTRGNGIFTYDAKYRTTLPGSLWADADNQFFASYDAPAVDAHYYAGVTYDYYKNVHNRLSYDGNNAAIRSSVHYSQGYNNAFWNGSQMVYGDGDGQTFIPLSGGIDVVAHELTHAVTDYTAGLIYQNESGAINEAISDIFGTLVEFYANKNPDWEIGEDVYTPGISGDSLRSMSDPAKYGDPDHYSKRYTGTQDNGGVHINSGIINKAAYLISQGGTHYGVSVVGIGRDKLGKIFYRALTQYLTPTSNFSQLRAAAVQSATDLYGSTSQEVASVKQAFDAVGVK
- optical change / cleavage (absorbance at 397 nm, SDS-PAGE, MALDI-MS): this sensor was not cleaved by thrombin and protease type X
